Laboratory results taken from article PMC10713658.

Biological target: ABI2 (UniProt Q9NYB9)
Assay: Flag co-IP, ABI2 Western blot
Settings: reference: wild type, OA-treated; sites S668,T670,S671

binding against the reference: weaker
Substance: GRAF1 (from UniProt Q9UNA1) AAA (S668A/T670A/S671A), OA-treated
